Laboratory results: patent US20240115611A1 (KITE PHARMA, published 2024)
Numbering of substitutions follows the chain as printed.

T1: CD20 (human CD20) (human, UniProt P11836 1-297)
T1 construct: whole, on cells; The cell line for each value is named under assay
T1 sequence (looked up): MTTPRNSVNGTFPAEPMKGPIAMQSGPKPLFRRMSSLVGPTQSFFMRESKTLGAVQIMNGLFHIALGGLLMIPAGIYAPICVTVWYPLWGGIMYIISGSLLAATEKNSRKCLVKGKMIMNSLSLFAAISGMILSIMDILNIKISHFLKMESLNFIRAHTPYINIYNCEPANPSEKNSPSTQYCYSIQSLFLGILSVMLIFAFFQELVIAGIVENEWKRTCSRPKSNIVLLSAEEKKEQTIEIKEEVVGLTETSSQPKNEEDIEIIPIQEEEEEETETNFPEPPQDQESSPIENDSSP

B1: Ab10 (Exemplary Antibody Sequences 10), anti-CD20 antibody (antibody, V domains shown)
VH: QVQLQQWGAGLLKPSETLSLTCAVYGGSFQKYYWSWIRQPPGKGLEWIGEIDTSGFTNYNPSLKSRVTISVDTSKNQFSLKLSSVTAADTAVYYCARVGRYSYGYYITAFDIWGQGTTVTVSS
VL: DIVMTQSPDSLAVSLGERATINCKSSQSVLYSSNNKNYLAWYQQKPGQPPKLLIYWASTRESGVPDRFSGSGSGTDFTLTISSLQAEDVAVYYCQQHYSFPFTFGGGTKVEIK
B2: Ab2 (Exemplary Antibody Sequences 2), anti-CD20 antibody (antibody, V domains shown)
VH: QVQLQQWGAGLLKPSETLSLTCAVYGGSFSGIHWNWIRQPPGKGLEWIGDIDTSGSTNYNPSLKSRVTISVDTSKNQFSLKLSSVTAADTAVYYCARLGQESATYLGMDVWGQGTTVTVSS
VL: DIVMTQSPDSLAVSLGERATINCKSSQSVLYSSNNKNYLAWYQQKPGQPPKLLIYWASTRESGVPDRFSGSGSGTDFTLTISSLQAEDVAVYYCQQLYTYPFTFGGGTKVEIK
B3: Ab1 (Exemplary Antibody Sequences 1), anti-CD20 antibody (antibody, V domains shown)
VH: QVQLQQWGAGLLKPSETLSLTCAVYGGSFSGYYWSWIRQPPGKGLEWIGEIDHSGSTNYNPSLKSRVTISVDTSKNQFSLKLSSVTAADTAVYYCARGGGSWYSNWFDPWGQGTMVTVSS
VL: DIQMTQSPSTLSASVGDRVTITCRASQSISSWLAWYQQKPGKAPKLLIYDASSLESGVPSRFSGSGSGTEFTLTISSLQPDDFATYYCQQDRSLPPTFGGGTKVEIK
B4: Ab8 (Exemplary Antibody Sequences 8), anti-CD20 antibody (antibody, V domains shown)
VH: QVQLQQWGAGLLKPSETLSLTCAVYGGSFSRYVWSWIRQPPGKGLEWIGEIDSSGKTNYNPSLKSRVTISVDTSKNQFSLKLSSVTAADTAVYYCARVRYDSSDSYYYSYDYGMDVWGQGTTVTVSS
VL: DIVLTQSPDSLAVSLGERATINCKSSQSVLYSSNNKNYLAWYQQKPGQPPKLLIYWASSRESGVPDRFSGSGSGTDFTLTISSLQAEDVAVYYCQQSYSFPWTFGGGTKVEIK
B5: Ab9 (Exemplary Antibody Sequences 9), anti-CD20 antibody (antibody, V domains shown)
VH: B4 VH with R31G, V33A, S53H, S54R, K56F
VL: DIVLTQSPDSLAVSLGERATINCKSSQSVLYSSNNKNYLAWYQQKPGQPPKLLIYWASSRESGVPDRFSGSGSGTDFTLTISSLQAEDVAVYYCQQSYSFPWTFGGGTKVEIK
B6: Ab7 (Exemplary Antibody Sequences 7), anti-CD20 antibody (antibody, V domains shown)
VH: B4 VH with S30E, R31K, V33Y, D52Y, S53H, K56L
VL: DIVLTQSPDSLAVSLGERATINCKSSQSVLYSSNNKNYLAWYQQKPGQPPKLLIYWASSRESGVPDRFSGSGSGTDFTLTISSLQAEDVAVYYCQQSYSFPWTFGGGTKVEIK
B7: Ab4 (Exemplary Antibody Sequences 4), anti-CD20 antibody (antibody, V domains shown)
VH: QVQLVQSGAEVKKPGASVKVSCKASGYTFKEYGISWVRQAPGQGLEWMGWISAYSGHTYYAQKLQGRVTMTTDTSTSTAYMELRSLRSDDTAVYYCARGPHYDDWSGFIIWFDPWGQGTLVTVSS
VL: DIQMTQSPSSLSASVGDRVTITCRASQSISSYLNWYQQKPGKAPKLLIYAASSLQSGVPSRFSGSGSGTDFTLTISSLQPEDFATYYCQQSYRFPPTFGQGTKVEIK
B8: Ab3 (Exemplary Antibody Sequences 3), anti-CD20 antibody (antibody, V domains shown)
VH: QLQLQESGPGLVKPSETLSLTCTVSGGSISSSSYYWGWIRQPPGKGLEWIGSIYYSGSTYYNPSLKSRVTISVDTSKNQFSLKLSSVTAADTAVYYCARETDYSSGMGYGMDVWGQGTTVTVSS
VL: DIQMTQSPSSLSASVGDRVTITCRASQSINSYLNWYQQKPGKAPKLLIYAASSLQSGVPSRFSGSGSGTDFTLTISSLQPEDFATYYCQQSLADPFTFGGGTKVEIK
B9: Ab6 (Exemplary Antibody Sequences 6), anti-CD20 antibody (antibody, V domains shown)
VH: QITLKESGPTLVKPTQTLTLTCTFSGFSLDTEGVGVGWIRQPPGKALEWLALIYFNDQKRYSPSLKSRLTITKDTSKNQVVLTMTNMDPVDTAVYYCARDTGYSRWYYGMDVWGQGTTVTVSS
VL: B8 VL with L11V, S28G, N30S, Y32W, N34A, S91A, L92Y, D94Y, F96I
B10: Ab5 (Exemplary Antibody Sequences 5), anti-CD20 antibody (antibody, V domains shown)
VH: B8 VH with L2V, S32P, S33D, Y34H, Y55A, Y60F
VL: B8 VL

The binders below were run against T1, CD20 (human CD20) (assay: flow cytometry, purified IgG at 10 nM on Raji cells (CD20+), FITC-LC detection, ratio over negative control).
Description: (§1) To determine cell binding by exemplary heavy chain variable domains and light chain variable domains of the present disclosure, purified IgGs were characterized for cell binding at a concentration of 10 nM by flow cytometry. Antibodies were incubated with CHO-S cells overexpressing CD20, Raji, and Namalwa CD20+ cell lines; and with EoL-1 and CHO-S CD20-cell lines. FITC-LC was used to detect IgGs. The ratio of binding over negative controls was calculated for each antibody.

Raji Cell Binding FON (Fold Over Negative) [fold]	Binder
186	B1
101	B2
266	B3
562	B4
562	B5
549	B6
479	B7
316	B8
13	B9
185	B10

Each binder was assayed against T1, CD20 (human CD20) (assay: flow cytometry, purified IgG at 10 nM on Namalwa cells (CD20+), FITC-LC detection, ratio over negative control).
Description: as §1

Namalwa Cell Binding FON (Fold Over Negative) [fold]	Binder
4	B1
3	B2
12	B3
10	B4
11	B5
11	B6
19	B7
16	B8
2	B9
17	B10

The binders below were run against T1, CD20 (human CD20) (assay: flow cytometry, purified IgG at 10 nM on CHO-S cells overexpressing CD20, FITC-LC detection, ratio over negative control).
Description: as §1

CHO-CD20 Cell Binding FOB (Fold Over Background) [fold]	Binder
3160	B1
2790	B2
813	B3
3830	B4
3620	B5
4080	B6
3620	B7
2000	B8
2520	B9
2480	B10
